In patent US20190330665A1 one finds decrease in basal mNeonGreen expression in exponential phase (PT7:mNeonGreen reporter, PurtA:T7pol biosensor strain) data, which are given here for one substance.

The target in the test is T7 RNA polymerase (UniProt P00573). Nature of the test: cell-based or functional assay.

In turn, “catalytically-deactivated variant of T7 lysozyme (LysY) (from UniProt P00806 2-151)” had a decrease in basal mNeonGreen expression in exponential phase (PT7:mNeonGreen reporter, PurtA:T7pol biosensor strain) of 78%.
